We go through one molecule from publication PMC6278376, “Dynamics-Derived Insights into Complex Formation between the CXCL8 Monomer and CXCR1 N-Terminal Domain: An NMR Study” (Molecules, 2018).

Experiment [1] deals with T1, CXCL8 monomer (residues 1–66) (disulfides Cys9-Cys50 (printed) and Cys7-Cys34 (by convention), mature numbering; mature residue 1 = precursor 28 (offset +27), matching PDB 5WDZ entity 1 (66 aa); 15N-labelled for NMR). The experiment is described as follows: ITC; 890 μM CXCR1 N-domain peptide injected into 80 μM CXCL8 monomer; 50 mM sodium phosphate pH 6.0, 25 °C; single-binding site model. Conditions: both partners purified.
T1 sequence (chain, as listed by the source): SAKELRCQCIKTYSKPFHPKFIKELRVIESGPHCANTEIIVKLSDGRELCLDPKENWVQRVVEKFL

For experiment [2], the target named is T1, CXCL8 monomer (residues 1–66). The experiment is described as follows: NMR titration; 200 μM 15N-CXCL8 titrated with unlabeled CXCR1 peptide (2.5 mM stock, molar ratios 0 to 8.4); 2D 1H-15N HSQC; shift changes fit to a 1:1 model for KD; line shape analysis (Bloch–McConnell, two-site exchange) for koff, kon = koff/KD; 50 mM sodium phosphate pH 6.0, 30 °C. The following applies: both partners purified.

B1: CXCR1 N-domain peptide corresponding to the first 29 amino acids (29mer) (peptide, UniProt P25024 1-29, looked up)
chain: MSNITDPQMWDFDDLNFTGMPPADEDYSP
notes: CXCR1 receptor, N-terminal domain, first 29 amino acids (M1, S2 ... S28 named in the text); human by the discussion's contrast with the rabbit peptide; Recombinant peptide; 15N-labelled where it was the observed species in NMR, unlabelled otherwise; also called CXCR1 N-domain 29mer; CXCR1 N-terminal domain; source: E. coli BL21(DE3), purified
What is called Kd is a measure of binding affinity in units of concentration. What is called stoichiometry N is a count of units in the complex or per binding partner. On to B1, for which, in experiment [1], the Kd was found to be 8.4 ± 0.5 µM, the dH was -2.6 ± 0.2 kcal/mol and the “stoichiometry N” value was determined as 0.93 ± 0.03. The Kd in experiment [2] is around 5 µM.
